Measured values taken from PMC9204835 (Journal of the American Chemical Society, 2022).

Target: the molecule itself
Experiment: crystal structure

B1: SpeY-E269A/E270A double mutant (enzyme, Streptomyces spectabilis ATCC 27741)
chain: MSVRLADGKVRNPEGIEVNASLQCNMRCQSCAHLSPLYRRENADPAEIHDTLSVLARSYHASYAKIMGGEPLLHPDVVGLIEAVRATGISDTVLVATNGTLLHRATERFWQAVDSLEISVYPSRMIAPEEIERYRVLAREHGVSLLVNYYGHFRAVYSESGTDAPDLVRDVFDTCKLAHFWNSHTVYDGWLYRCPQSVFMPRQLRDGGWDPRVDGLRIEDDPAFLERLHRFLTADDPLRACRNCLGSVGKLHPHQELPRAGWQVTEQLAALVDYPFLKVCKDDITADDGCVERSLSAPVGGA
binding result: binds
